Read-outs that look alike come from different tables or passages of the source.
T1: HIS-tagged N-terminal of yeast Pol1 (1 to 527 AA) (yeast (S. cerevisiae), UniProt P13382 1-527)
T1 sequence (looked up): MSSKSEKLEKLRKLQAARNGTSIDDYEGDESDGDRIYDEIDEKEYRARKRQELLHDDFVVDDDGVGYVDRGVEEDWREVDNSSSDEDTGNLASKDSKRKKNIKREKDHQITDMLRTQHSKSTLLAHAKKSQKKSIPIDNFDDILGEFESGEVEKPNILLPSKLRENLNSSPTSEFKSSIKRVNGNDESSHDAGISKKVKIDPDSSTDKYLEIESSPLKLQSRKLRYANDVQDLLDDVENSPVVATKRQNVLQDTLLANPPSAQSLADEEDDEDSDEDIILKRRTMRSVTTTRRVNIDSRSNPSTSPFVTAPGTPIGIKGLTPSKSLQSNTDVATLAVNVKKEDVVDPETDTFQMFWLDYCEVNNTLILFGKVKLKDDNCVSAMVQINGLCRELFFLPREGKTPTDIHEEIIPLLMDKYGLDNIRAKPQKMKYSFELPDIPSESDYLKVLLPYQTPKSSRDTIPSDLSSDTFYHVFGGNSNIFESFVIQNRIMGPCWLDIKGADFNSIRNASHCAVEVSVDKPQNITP

B1: recombinant Mcm2 (GST tag removed) (natural protein)
chain: MSDNRRRRREEDDSDSENELPPSSPQQHFRGGMNPVSSPIGSPDMINPEGDDNEVDDVPDIDEVEEQMNEVDLMDDNMYEDYAADHNRDRYDPDQVDDREQQELSLSERRRIDAQLNERDRLLRNVAYIDDEDEEQEGAAQLDEMGLPVQRRRRRRQYEDLENSDDDLLSDMDIDPLREELTLESLSNVKANSYSEWITQPNVSRTIARELKSFLLEYTDETGRSVYGARIRTLGEMNSESLEVNYRHLAESKAILALFLAKCPEEMLKIFDLVAMEATELHYPDYARIHSEIHVRISDFPTIYSLRELRESNLSSLVRVTGVVTRRTGVFPQLKYVKFNCLKCGSILGPFFQDSNEEIRISFCTNCKSKGPFRVNGEKTVYRNYQRVTLQEAPGTVPPGRLPRHREVILLADLVDVSKPGEEVEVTGIYKNNYDGNLNAKNGFPVFATIIEANSIKRREGNTANEGEEGLDVFSWTEEEEREFRKISRDRGIIDKIISSMAPSIYGHRDIKTAVACSLFGGVPKNVNGKHSIRGDINVLLLGDPGTAKSQILKYVEKTAHRAVFATGQGASAVGLTASVRKDPITKEWTLEGGALVLADKGVCLIDEFDKMNDQDRTSIHEAMEQQSISISKAGIVTTLQARCSIIAAANPNGGRYNSTLPLAQNVSLTEPILSRFDILCVVRDLVDEEADERLATFVVDSHVRSHPENDEDREGEELKNNGESAIEQGEDEINEQLNARQRRLQRQRKKEEEISPIPQELLMKYIHYARTKIYPKLHQMDMDKVSRVYADLRRESISTGSFPITVRHLESILRIAESFAKMRLSEFVSSYDLDRAIKVVVDSFVDAQKVSVRRQLRRSFAIYTLGH
B2: recombinant glutathione S-transferase (GST)-Pol32 (natural protein, yeast (S. cerevisiae), UniProt P47110 1-350, looked up)
chain: MDQKASYFINEKLFTEVKPVLFTDLIHHLKIGPSMAKKLMFDYYKQTTNAKYNCVVICCYKDQTIKIIHDLSNIPQQDSIIDCFIYAFNPMDSFIPYYDIIDQKDCLTIKNSYELKVSESSKIIERTKTLEEKSKPLVRPTARSKTTPEETTGRKSKSKDMGLRSTALLAKMKKDRDDKETSRQNELRKRKEENLQKINKQNPEREAQMKELNNLFVEDDLDTEEVNGGSKPNSPKETDSNDKDKNNDDLEDLLETTAEDSLMDVPKIQQTKPSETEHSKEPKSEEEPSSFIDEDGYIVTKRPATSTPPRKPSPVVKRALSSSKKQETPSSNKRLKKQGTLESFFKRKAK

Columns and labels:
Assay in all cases: pull-down
[1] = molecular target: T2, recombinant human histone H3.1–H4 tetramer (human, UniProt P68431 1-136; P62805 1-103)
[2] = molecular target: T1, HIS-tagged N-terminal of yeast Pol1 (1 …)
[3] = molecular target: B1
[4] = molecular target: T2, recombinant human histone H3.1–H4 …; remark: listed apart in the source

B1
binding result [1]: binds

B2
binding result [2]: binds
binding result [3]: binds
binding result [4]: binds
